Measured values from paper PMC3553976.

Key:
[1] = molecular target: U2AF65 RRM123;SF1 2-320 (Homo sapiens;Homo sapiens?, UniProt P26368;Q15637 147-475;2-320, |); experiment: EMSA
[2] = molecular target: U2AF65 RRM123;SF1 2-320 delta-linker (Homo sapiens;Homo sapiens?, UniProt P26368;Q15637 147-475;2-320, |del75-90); experiment: EMSA
[3] = molecular target: T1, U2AF65 RRM123;SF1 1-260 (Homo sapiens;Homo sapiens, UniProt P26368;Q15637 147-475;1-260, |); experiment: EMSA
[4] = molecular target: U2AF65 RRM123;SF1 2-320 delta-alpha1 (Homo sapiens;Homo sapiens?, UniProt P26368;Q15637 147-475;2-320, |del35-68); experiment: EMSA
[5] = molecular target: U2AF65 RRM123 (Homo sapiens, UniProt P26368 147-475); experiment: EMSA
U2AF65 RRM123, sequence (P26368 147-475, one chain of several): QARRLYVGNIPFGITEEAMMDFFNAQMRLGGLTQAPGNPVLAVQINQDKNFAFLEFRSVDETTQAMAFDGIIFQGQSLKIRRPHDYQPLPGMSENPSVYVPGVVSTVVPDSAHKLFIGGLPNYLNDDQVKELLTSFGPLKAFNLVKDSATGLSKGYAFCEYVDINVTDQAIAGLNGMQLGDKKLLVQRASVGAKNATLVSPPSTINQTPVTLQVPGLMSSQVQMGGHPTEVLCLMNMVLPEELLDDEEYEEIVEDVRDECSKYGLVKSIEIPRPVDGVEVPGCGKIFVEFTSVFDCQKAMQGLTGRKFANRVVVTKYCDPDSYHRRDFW

[6] = molecular target: T1, U2AF65 RRM123;SF1 1-260; experiment: SAXS

Measured: binding result

B1: 3'-splice site RNA (AdML intron 1, consensus BPS) (ssRNA)
RNA: GGUCAUACUAACCCUGUCCCUUUUUUUUCCACAGC
not listed: [6]
binds: all other assays above

B2: 20-mer BPS-Py tract RNA (ssRNA)
RNA: UAUACUAACAAUUUUUUUUU
binds: [6]
